Data from patent publication US20130101571A9, “ANTIDOTES FOR NITROBENZODIAZEPINES” (Academia Sinica, priority 2011, published 2013).
“Also recorded” adds a separate entry of the source.

Key:
[1] = tested on: nfsb-wt and nfsb-n71s/f124w-transformed E. coli BL21(DE3); test: Disk assay for FZ sensitivity (disk diffusion, zones of inhibition); assay type: cell-based; settings: E. coli expressing wild-type enzyme or N71S/F124W mutant; dosage up to 400 μg; 24 hrs
Protocol: LB plates were uniformly streaked with 0.1 ml of bacterial cell suspensions having an OD600 value of 0.8. Sterile 7 mm filter paper disks saturated with 7 μl of each chemical, including FZ alone, metronidazole (MTZ) alone, and a combination of FZ and MTZ at a ratio of 1/1 by weight, in the amounts indicated in FIG. 4 were placed on the plates. The cells were incubated for 24 hrs before the zones of inhibition were measured.^22

[2] = 7AFZ production from FZ by purified NfsB proteins (HPLC); assay type: biochemical; settings: for 7AFZ formation: FZ 64 μM, purified NfsB protein 10 μg, NADPH 2 mM, 2 h at 37° C., mean±S.D. from three incubations; for production of 7AFZ compared to the wild-type enzyme (in words): anaerobic conditions, FIG. 2B
Protocol: Production of 7AFZ was performed under both aerobic or anaerobic conditions. For anaerobic incubation, nitrogen was inlet into an anaerobic incubator (Biotrace). The reaction mixture consisted of FZ (64 μM), purified NfsB proteins (10 μg), MgCl2 (3.3 mM), and NADPH (2 mM) in 100 mM potassium phosphate buffer (pH 7.4). After incubation for 2 h at 37° C., the reaction was terminated by the addition of a methanol solution (200 μl) containing bromazepam (1 μg/mL), which acted as an internal control. The reaction products were extracted via sonication and analyzed by HPLC at 240 nm with a procedure described previously.^13 The detection limit for 7AFZ or FZ was less than 3-5 ng with 83-86% of recovery.

[3] = Kinetic study monitoring the rate of FZ disappearance (standard nitroreductase assay of E. coli NfsB); assay type: biochemical; settings: aerobic; for Km / Vmax: FZ 4-256 μM, linear plot; for Km / Vmax / Specific activity / Specific activity relative to wild type: NADPH 2 mM; for Specific activity / Specific activity relative to wild type: against FZ
Protocol: A kinetic study was carried out by monitoring the rate of FZ disappearance. FZ (4-256 μM) was incubated with purified NfsB proteins (10 μg) under the aerobic conditions described above for 2 h in the presence of NADPH at a fixed concentration of 2 mM.
Data were analyzed and calculated via linear plot (13). The amounts of FZ were obtained via the standard nitroreductase assay of E. coli NfsB in the presence of a fixed concentration of cofactor NADPH (2 mM).

FZ-induced hypnosis = test: Sleep-time (anti-FZ hypnosis) study in mice; assay type: in vivo, Balb/c mice; settings: for effect on sleep-time in treated mice (in words): FZ-treated Balb/c mice, FIG. 5A
Protocol: Male Balb/c mice were purchased from the Animal Center, College of Medicine, National Taiwan University (NTUMC), and were housed in the air-conditioned animal quarters on a 12-h light/dark cycle (temperature 23-25° C.). The animals had free access to water and rodent laboratory chow (Purina Mills Inc.) with the experimental procedures being approved by the Institutional Care and Use Committee at NTUMC.
A sleep-time study in mice was started at the age of seven weeks (body weight ranged from 17.6-19.2 g) following experimental procedures modified from previous studies.^23 Briefly, mice were divided into three groups (at least 4 mice per group) and injected i.p. with 2 mg/kg body weight of FZ from the stock solution (0.4 mg/ml in corn oil). One minute later, mice in Group I, Group II, and Group III were injected i.v. with a vehicle control, 1 mg/ml of wild-type NfsB enzyme (dissolved in 100 mM potassium phosphate buffer, pH 7.4), and 1 mg/ml of the N71S/F124W mutant enzymes (also dissolved in 100 mM potassium phosphate buffer, pH 7.4), respectively, via the tail lateral veins of the FZ-treated mice. The ability of the treated mice to stand on a stainless steel laboratory holder was examined at various time points. A mouse was characterized as losing the reflex ability if it could not stand on the holder for 10 seconds; A mouse was defined as having regained the reflex ability if it could stand on the holder for at least 10 seconds. The time between losing and regaining the reflex ability was defined as sleep-time and recorded for each group.

[4] = NfsB in mice serum by direct competitive ELISA; settings: 24 hours after the injection
Protocol: The ELISA assay used in this study was a modified version of a previously described method.^24 Briefly, 96-well microtitre plates were coated with 100 μL of anti-NfsB antibody solution (4 μg/ml in PBS; 13) overnight at 4° C., then washed with PBS containing 0.05% Tween 20 (PBST) in triplicate, then incubated with a blocking buffer containing PBST and 1% BSA. NfsB standards (containing 40 μl sera of untreated mice), or samples (containing 40 μl sera from treated mice collected 1, 3, 6, 12, and 24 hours after the treatment) were placed in the above-noted blocking buffer (60 μL) and added to the wells, which were incubated overnight at 4° C. Enzyme tracer solution (100 μl 6×His mAb/HRP, 1:10,000 in PBS) were added to the wells and incubated at 37° C. for 30 min Subsequently, the wells were washed and TMB substrate solution was added (100 μl). After incubation for 15 min at room temperature, a sulfuric acid solution (2N, 50 μl) was added to stop color development. The absorbance was measured at 450 nm. […] NfsB concentration in the sera samples of the treated groups were calculated based on the standard curve.

CN1C(=O)CN=C(c2ccccc2F)c2cc([N+](=O)[O-])ccc21 [FZ, flunitrazepam]
inhibitory effect (zones of inhibition) on E. coli cells [1]: neither exhibited toxicity nor increased MTZ toxicity; also recorded: did not show any inhibitory effect

Cc1ncc([N+](=O)[O-])n1CCO [Metronidazole, metronidazole]
inhibitory effect (zones of inhibition) on E. coli cells [1]: dose-dependent

B1: Wild type: Wild-type E. coli type I nitroreductase NfsB (NP-415110; SEQ ID NO:1), His-tagged recombinant protein (protein)
chain: MDIISVALKRHSTKAFDASKKLTPEQAEQIKTLLQYSPSSTNSQPWHFIVASTEEGKARVAKSAAGNYVFNERKMLDASHVVVFCAKTAMDDVWLKLVVDQEDADGRFATPEAKAANDKGRKFFADMHRKDLHDDAEWMAKQVYLNVGNFLLGVAALGLDAVPIEGFDAAILDAEFGLKEKGYTSLVVVPVGHHSVEDFNATLPKSRLPQNITLTEV
modifications: His tag; E. coli
7AFZ formation ([2]; aerobic): 29.52 ± 6.6 ng
7AFZ formation ([2]; anaerobic): 51.85 ± 2.19 ng
Km [3]: 71.4 µM
Vmax [3]: 1.89 µM/min
Specific activity [3]: 82.9 nmol/min/mg protein
Specific activity relative to wild type [3]: 1.0 fold
effect on sleep-time in treated mice (in words) (FZ-induced hypnosis): significantly reduced the sleep-time
enzyme remaining in the serum [4]: 30%

B2: F70Y (protein)
chain: MDIISVALKRHSTKAFDASKKLTPEQAEQIKTLLQYSPSSTNSQPWHFIVASTEEGKARVAKSAAGNYVYNERKMLDASHVVVFCAKTAMDDVWLKLVVDQEDADGRFATPEAKAANDKGRKFFADMHRKDLHDDAEWMAKQVYLNVGNFLLGVAALGLDAVPIEGFDAAILDAEFGLKEKGYTSLVVVPVGHHSVEDFNATLPKSRLPQNITLTEV
production of 7AFZ compared to the wild-type enzyme (in words) [2]: higher activity

B3: N71S (protein)
chain: MDIISVALKRHSTKAFDASKKLTPEQAEQIKTLLQYSPSSTNSQPWHFIVASTEEGKARVAKSAAGNYVFSERKMLDASHVVVFCAKTAMDDVWLKLVVDQEDADGRFATPEAKAANDKGRKFFADMHRKDLHDDAEWMAKQVYLNVGNFLLGVAALGLDAVPIEGFDAAILDAEFGLKEKGYTSLVVVPVGHHSVEDFNATLPKSRLPQNITLTEV
7AFZ formation relative to wild-type enzyme ([2]; anaerobic): 2.4 fold
production of 7AFZ compared to the wild-type enzyme (in words) [2]: significantly increased
7AFZ formation ([2]; anaerobic): 126 ± 2.06 ng

B4: S40G (protein)
chain: MDIISVALKRHSTKAFDASKKLTPEQAEQIKTLLQYSPSGTNSQPWHFIVASTEEGKARVAKSAAGNYVFNERKMLDASHVVVFCAKTAMDDVWLKLVVDQEDADGRFATPEAKAANDKGRKFFADMHRKDLHDDAEWMAKQVYLNVGNFLLGVAALGLDAVPIEGFDAAILDAEFGLKEKGYTSLVVVPVGHHSVEDFNATLPKSRLPQNITLTEV
production of 7AFZ compared to the wild-type enzyme (in words) [2]: higher activity

B5: F70H (protein)
chain: MDIISVALKRHSTKAFDASKKLTPEQAEQIKTLLQYSPSSTNSQPWHFIVASTEEGKARVAKSAAGNYVHNERKMLDASHVVVFCAKTAMDDVWLKLVVDQEDADGRFATPEAKAANDKGRKFFADMHRKDLHDDAEWMAKQVYLNVGNFLLGVAALGLDAVPIEGFDAAILDAEFGLKEKGYTSLVVVPVGHHSVEDFNATLPKSRLPQNITLTEV
production of 7AFZ compared to the wild-type enzyme (in words) [2]: higher activity

B6: F124H (protein)
chain: MDIISVALKRHSTKAFDASKKLTPEQAEQIKTLLQYSPSSTNSQPWHFIVASTEEGKARVAKSAAGNYVFNERKMLDASHVVVFCAKTAMDDVWLKLVVDQEDADGRFATPEAKAANDKGRKFHADMHRKDLHDDAEWMAKQVYLNVGNFLLGVAALGLDAVPIEGFDAAILDAEFGLKEKGYTSLVVVPVGHHSVEDFNATLPKSRLPQNITLTEV
production of 7AFZ compared to the wild-type enzyme (in words) [2]: significantly increased

B7: F124W (protein)
chain: MDIISVALKRHSTKAFDASKKLTPEQAEQIKTLLQYSPSSTNSQPWHFIVASTEEGKARVAKSAAGNYVFNERKMLDASHVVVFCAKTAMDDVWLKLVVDQEDADGRFATPEAKAANDKGRKFWADMHRKDLHDDAEWMAKQVYLNVGNFLLGVAALGLDAVPIEGFDAAILDAEFGLKEKGYTSLVVVPVGHHSVEDFNATLPKSRLPQNITLTEV
7AFZ formation relative to wild-type enzyme ([2]; anaerobic): 2.7 fold
production of 7AFZ compared to the wild-type enzyme (in words) [2]: significantly increased
7AFZ formation ([2]; anaerobic): 141.88 ± 5.28 ng

B8: F124Y (protein)
chain: MDIISVALKRHSTKAFDASKKLTPEQAEQIKTLLQYSPSSTNSQPWHFIVASTEEGKARVAKSAAGNYVFNERKMLDASHVVVFCAKTAMDDVWLKLVVDQEDADGRFATPEAKAANDKGRKFYADMHRKDLHDDAEWMAKQVYLNVGNFLLGVAALGLDAVPIEGFDAAILDAEFGLKEKGYTSLVVVPVGHHSVEDFNATLPKSRLPQNITLTEV
production of 7AFZ compared to the wild-type enzyme (in words) [2]: higher activity

B9: T41L (protein)
chain: MDIISVALKRHSTKAFDASKKLTPEQAEQIKTLLQYSPSSLNSQPWHFIVASTEEGKARVAKSAAGNYVFNERKMLDASHVVVFCAKTAMDDVWLKLVVDQEDADGRFATPEAKAANDKGRKFFADMHRKDLHDDAEWMAKQVYLNVGNFLLGVAALGLDAVPIEGFDAAILDAEFGLKEKGYTSLVVVPVGHHSVEDFNATLPKSRLPQNITLTEV
production of 7AFZ compared to the wild-type enzyme (in words) [2]: significantly increased

B10: Y68G (protein)
chain: MDIISVALKRHSTKAFDASKKLTPEQAEQIKTLLQYSPSSTNSQPWHFIVASTEEGKARVAKSAAGNGVFNERKMLDASHVVVFCAKTAMDDVWLKLVVDQEDADGRFATPEAKAANDKGRKFFADMHRKDLHDDAEWMAKQVYLNVGNFLLGVAALGLDAVPIEGFDAAILDAEFGLKEKGYTSLVVVPVGHHSVEDFNATLPKSRLPQNITLTEV
production of 7AFZ compared to the wild-type enzyme (in words) [2]: significantly increased

B11: N71S/F124W: Double mutant N71S/F124W of E. coli type I nitroreductase NfsB (protein)
chain: MDIISVALKRHSTKAFDASKKLTPEQAEQIKTLLQYSPSSTNSQPWHFIVASTEEGKARVAKSAAGNYVFSERKMLDASHVVVFCAKTAMDDVWLKLVVDQEDADGRFATPEAKAANDKGRKFWADMHRKDLHDDAEWMAKQVYLNVGNFLLGVAALGLDAVPIEGFDAAILDAEFGLKEKGYTSLVVVPVGHHSVEDFNATLPKSRLPQNITLTEV
7AFZ formation relative to wild-type enzyme ([2]; aerobic): 11.77 fold
7AFZ formation ([2]; aerobic): 347.56 ± 16.59 ng
7AFZ formation relative to wild-type enzyme ([2]; anaerobic): 5.6 fold
7AFZ formation ([2]; anaerobic): 290.52 ± 18.38 ng
Km [3]: 111 µM
Vmax [3]: 3.13 µM/min
Vmax relative to wild-type enzyme [3]: 1.7 fold
Specific activity [3]: 195.5 nmol/min/mg protein
Specific activity relative to wild type [3]: 2.4 fold
effect on sleep-time in treated mice (in words) (FZ-induced hypnosis): significantly reduced the sleep-time
decrease of sleeping time compared to the vehicle group (FZ-induced hypnosis; FZ-treated mice): 50%
sleeping time (FZ-induced hypnosis; FZ-treated mice, enzyme 1 mg/ml i.v. one minute after FZ): 138 ± 22 min
